Consider 20 sequences from the DeepSol protein solubility set.

The nature of this data set: soluble on expression in E. coli; label from the status in PepcDB or PDB records.
With “MGSDKIHHHHHHMQRQTELKNWLQTVYPERDFDLSFAAADADFRRYFRAAFSDGGSVVCMDAPPDKMSVAPYLKVQKLFDMVNVPQVLHADTDLGFVVLNDLGNTTFLTAMLQEQGEAAHKALLLEAIGELVGLQKASREGVLPEYDRETMLREINLFPEWFVAKELGRELTFKQRQLWQQTADTLLPPLLAQPKVYVHRDFIVRNLMLTRGRPGVLDFQDALYGPISYDLVSLLRDAFIEWEEEFVLDLVIRYWEKARAAGLPVPAEFDEFYRRFEWMGVQRHLKVAGIFARLYYRDGKDKYRPEIPRFLNYLRRVSRRYAELAPLYALLVELVGDEELETGFTF”, the “soluble on expression in E. coli” value is recorded as “not soluble”. The value for “MSLKDGTFQIAIFSDMHFGQYESTTGPEQDRNSVEVLNKVLDYDTPDLVVLNGDLINGDSTWKHNSTHYIDMIVEPMVNRSLTWASTYGNHDHNYNINGDDILVREQMWPGARTQKMVNKTRSGTTNYYLPVYPSDCSNTSDCSPQMILWFFDSRGGNYYQGSWQENWVDQSVVDWFNETSTELTSKHNKTIPSLAFVHVPPNATVALQTELGIRKNNQPGINDDPPVPQQGYGWCADGTPTYDCPYGGQDIPFMEALVTIPGIIGLFYGHDHGNTWCYRWDTKLDGMDIEGNGIHLCYGQHSGYGGYGDWIRGAREIVVTEDMLEKNEVETYIRLESGDVVGKVMLNSTYNEGHHHHHH” was “not soluble”; that for “MITPDLESGVKVWHLVKNHDHGDQKEGDRGSKMVSEIYLTRLLATKGTLQKFVDDLFETLFSTVHRGSALPLAIKYMFDFLDEQADRHSIHDTDVRHTWKSNCLPLRFWVNVIKNPQFVFDIHKGSITDACLSVVAQTFMDSCSTSEHRLGKDSPSNKLLYAKDIPSYKNWVERYYADIAKLPAISDQDMNAYLAEQSRLHATEFNMLSALNEIYSYVSKYSEELIGALEQDEQARRQRLAYKVEHLINAMSIES” was “not soluble”.

Regarding “MSLEFLQRDQAPLTAEEWEQIDKTAYEVFKSTVVCRKFMPVVGPFGAGHQVVSYDVLYGVEPGVCEVKPGQEYKVCEPVRTGERKHVPVPTLYKDFVISWRDLEHWRQFNLPVDTTGVAAAASSLAVAEDKLILFGNQEMGIEGFLTAKGTLREELSDWEKVGNAFQDVVKGISRLVEKGFYTNYYLIVNPKRYFLLNRIHDNTGLLELEQIKKVVKEVYQTPIIPEDIVLLVSASPANFDLAIALDVNVAFVETSNMNHTFRVMEMVVPRIKRPEAILIFSSEGHHHHHH”, the “soluble on expression in E. coli” value is reported as “not soluble”.

Consider “MNNETSGKETASAPLCSPKLPVEKVQRIAKNDPEYMDTSDDAFVATAFATEFFVQVLTHESLHRQQQQQQQQVPPLPDELTLSYDDISAAIVHSSDGHLQFLNDVIPTTKNLRLLVEENRVRYTTSVMPPNEVYSAYVVNDTAPKPNIVEIDLDNDEDDDEDVTDQE”, for which the “soluble on expression in E. coli” value was “not soluble”. Turning to “DEYARDTKVEWREWGTAPFEDAAESGKPVLLALTVPWSAECRAMDRGTYGEPRIAANINDGFVPVRVDADRNPRVRERYTMGGFPSTVFLTPEGEVITGATFLGPDGFRGILDSVRESWDAQ”, the “soluble on expression in E. coli” value was “not soluble”. For the sequence “MKCTKCGKPASVKLRHYNIKLCKEHFNEFIEQRVEKAIKKFKMFGRNSKILIAVSGGKDSVSLWHMLKKLGYEVDALFIRAGKSGMVQKAQEIVEKNAELLNTKLHIVDATEYFGGLSTQEISIMLRRPVCSICGVVRRYLMNKFAYENGYDVVVTGHNLNDEASVLLGNILHWQEGYLERQWPLLPKTHEKLVPKAKPLVLNYEEDIKLYATLNEIPHLEMACPFSVGATSLVYKKILRELEEEQPGITLNFYLGFLKRKKEPKFEVEGLRECKECGYPTTAEVCSFCRLRKQVEKRKNKTPA”, the “soluble on expression in E. coli” value is recorded as “soluble”.

“MSLELSDCSVPLTKEDIKDFEMELNIKIPAAMKNFYLKFNGGMPSPYCFQPQDEDLDWVEINAFFPIKERTNAFETIEVIAKDIWSKNLMPCNLLPFAMDSGGNYYTLNLKNKKIYYYLTDEWDENASKEYNFETNTRYIAQSFNYFINHFIEEEEEGHHHHHH”: the “soluble on expression in E. coli” value is listed as “soluble”.

For the sequence “MAELSDQEMLRYNRQIILRGFDFEGQEALKDARVLVVGLGGLGCAATQYLAGAGVGQLTLLDFDTVSVSNLQRQTLHSDATVGQPKVESARDALARINPHITITPVNARLDDDAMTSLIAGHSLVLDCTDNVSVRNQLNAGCYTAKVPLISGAAIRMEGQVTVFTYRENEPCYRCLSRLFGENALTCVEAGVMAPLIGVIGSLQAMEAIKLLAHYGQPASGKIVMYDAMTCQFREMKLMRNPGCEVCGQ”, the “soluble on expression in E. coli” value is “not soluble”.

On to “GDQRFDVLITGGTLVDVVTGELRPADIGIVGALIASVHEPASRRDAAQVIDAGGAYVSPGLIDTHMHIESSMITPAAYAAAVVARGVTTIVWDPHEFGNVHGVDGVRWAAKAIENLPLRAILLAPSCVPSAPGLERGGADFDAAILADLLSWPEIGGIAEIMNMRGVIERDPRMSGIVQAGLAAEKLVCGHARGLKNADLNAFMAAGVSSDHELVSGEDLMAKLRAGLTIELRGSHDHLLPEFVAALNTLGHLPQTVTLCTDDVFPDDLLQGGGLDDVVRRLVRYGLKPEWALRAATLNAAQRLGRSDLGLIAAGRRADIVVFEDLNGFSARHVLASGRAVAEGGRMLVDIPTCDTTVLKGSMKLPLRMANDFLVKSQGAKVRLATIDRPRFTQWGETEADVKDGFVVPPEGATMISVTHRHGMAEPTTKTGFLTGWGRWNGAFATTVSHDSHNLTVFGGNAGDMALAANAVIGTGGGMAVASEGKVTAILPLPLSGLVSDAPLEEVARAFEDLREAVGKVVEWQPPYLVFKACFGATLACNIGPHQTDMGIADVLTGKVMESPVIEV”, for which the “soluble on expression in E. coli” value is recorded as “not soluble”. Turning to “VQLQQSGPVLVKPGGSVKMSCKASEYTLTSYLFQWVKQKSGQGLEWIGYIYPYNGGTRYNEKFRGKATLTSDKSSNTAYLELSSLTSEDSAVYYCARSSMSDPGANWGPGTLVTVSSASTKGPSVFPLAPSSKSTSGGTAALGCLVKDYFPEPVTVSWNSGALTSGVHTFPAVLQSSGLYSLSSVVTVPSSSLGTQTYICNVNHKPSNTKVDKKVEP”, the “soluble on expression in E. coli” value is “soluble”.

Turning to “TTTVGLVCKDGVVMATEKRATMGNFIASKAAKKIYQIADRMAMTTAGSVGDAQFLARIIKIEANLYEIRRERKPTVRAIATLTSNLLNSYRYFPYLVQLLIGGIDSEGKSIYSIDPIGGAIEEKDIVATGSGSLTAYGVLEDRFTPEIGVDEAVELAVRAIYSAMKRDSASGDGIDVVKITEDEFYQYSPEEVEQILAKFRK”, the “soluble on expression in E. coli” value is reported as “soluble”.

For “MAETVGERPESMSPKLDNATIAAQLGSLATALDEFNRNSGSQVEMSLLLQRVCDQVVDAIADADMAGISLLRDGRVVTVAYTDEAVREIDIPNFQALDGDYFGVAGTRKVVKARLGEAAARWPSVADNLDQAGMRSFLSAPLAVDEALAGTLNIYGQGDHGFSELDAVVLLVYTTAIEGLLRSARSVELARNEVSGLTKAMKSRAVIEQAKGIVMALRGVPADQAFEILVAQSQQEHVKLAEVARRIVESVTTNPE”, the “soluble on expression in E. coli” value is recorded as “not soluble”. The value for “GADNNKWKPLFGKNLENANYNPEVWSETDGVLGAVKDESIWTKDEYENFELDLDFKTDVGTNSGVVVYCTDTKDWIPNSVEIQIADDHCEKWGNGKPYEKCGAIYGHLGAVQDKVVKKPGEWNHMRIKCAGQHIMVILNGKKVTEMDMSKWTSGTKNPDGSDIPSWLPKPFAELPTKGFIGLQGKHGDSLIWFRNIKIRSL” was “soluble”; that for “MAPKTGETVVEKMEVDEAKQDVPATEPAKDLNAIAVENIKEQLAALDKGEEHLITRVLQVLPKTRKQINDNVLYKLVSSHLSSDAQFAEGMLKYLHYTPAADTEVQPMDTSNVKTKSPKKGVKPVFASPESDCYLRLLVLLHLYAQKKNTEALALGENQLTSIYNFDRRTLDGLAAKTLYFLCVIYEREGRLFDHQGFLNSRLRTATLRNFSESQAVLICWLLRCYLINRQYQSAAHLVSKVAFPDNASNNDLARYMYYQGRIKALQLDYNSAAGYFLQAQRKAPQEGAIGFKQAVQKWVVVIGLLQGEIPDRSVFRQPIYRKCLAHYLDLSRGVRDGDVARFNHNLEQFKTQFEADDTLTLIVRLRQNVIKTAIKQISLAYSRIYIKDIAKKLYITNETETEYIVAKAIADGAIDAVITSDVRDGPRYMQSSETADIYRTSEPQAHFDTRIRYCLELHNQAVKALRYPPKKKIAVETIEQAREREQQELEFAKELADEDDDDF” was “not soluble”.

“MAHHHHHHMSTGHLRSVQLCRGQLRSLSHSSSMVGLRDFCNLVDECIKDIGVLKVNADDARILLHKRQQTFPSRHCDGVLAQTQVLYAQVLLKNLAEPVNRLIVRPVAVKNEGSEGLGVLHKPYDGAQSASPEIIAAQLELLQRAHRPTALNVLQDCRVHAATLLRAVRAVQLAQVRFSPHEKCTNTHGPKKKKK”: the “soluble on expression in E. coli” value is listed as “not soluble”. The value for “MGSDKIHHHHHHMEHISQLTAEIRDKAAYPDILVISRIFLPKEAVIGEYMYNRCLQDPERVIVLAASCSGDKVFDEGQQFPVYRWFYPRYWRSGFVGNILKPFVNIVCSFVLAIKLYFRYHYRYIEWGHGYDFPSLLLLSYLLPIRFFIYLHGNDFLCTLHNPVLRSLFKLTLKRAEGIVCNSSYTQDYLRTALRLDTPTYVINPVIRPEKFGNNVGSPSSLDDLRVRVRQAYNIPDSAIVILSIGRLVKHKAFDQVIDNIPLLLTFGVDVHYIICGEGPSESELKSLVHRLRVDKCVHFAGYVAERELAGYYAACDIFAMLTLLDSKPNNMEGFGMVYLEASYFGKPIIAPRLGGVLDTVQHEENGILVNPNSGYEVFQAFNRLCKDQQLREQLGRKGKELAKRRTLHRSLYKSEGKNPIL” was “not soluble”; that for “MSLDDSVFVGHLKDVTGATGFVGKLYGEGVNDALVWINAHGGIDGTRLDFESVDYAYEVPRAIALYKKWTSQNKMVALQGWGTGDTEALISFVAKDKIPVLSGSYSGHLTDPTGKNPKTQKPAPYNFFYGPSYSDACRALVQWAEGDWKAKGKEGKPKFIHAGDNHPYPNAPKEACADFATELGFEVLPPVVVSLKPGDFKAQCLTIKQSGANYVYVANLGPSVVSLVKSCKTVGTDAQYMANIWGGDSETQKTLGADGDGYVFVAANAFWGDDAPGLALVREIAGSETPRTHHYIRGVCSTFYMKEAMEWAKAHGGLTGESIRNAMYARKDWVPKGLEGVCIPSTWTPEDHRGMTKVFIYQMQNGSEIHKIAETDLPRRDDWLGYEGHHHHHH” was “not soluble”.

Turning to “MGSDKIHHHHHHMQNWLKQITTGAMIGTTVLVTSACTMRLSESTFIASDEVPVAFTAEFTQQLQQAMPNHLITPLSLEASDHVKLNGFYIDNPNSLTTLVFYQGNGMKIEPHGLSVLTTLSTLNTDILVMDRRGLGASEGQPSINNIIADAQQQLDYLHQQYQPEKVILHGYSLGSFIAADLAKNNKIDALILHGSATNADDWVDEKTPWYMAPFMTLEMPEDFRKTDNKQVVAQYYQGPLLVIAAEEDEEVPPELSEKLFVASQSANKQLIMVPNVGHQGMLDDANTMSQYQTFITEL”, the “soluble on expression in E. coli” value is given as “not soluble”.

On to “GIDPFTMVALSLKISIGNVVKTMQFEPSTMVYDACRMIRERIPEALAGPPNDFGLFLSDDDPKKGIWLEAGKALDYYMLRNGDTMEYRKKQRPLKIRMLDGTVKTIMVDDSKTVTDMLMTICARIGITNHDEYSLVRELMEEKKDELNWLDHGRTLREQGVEEHETLLLRRKFFYSDQ”, for which the “soluble on expression in E. coli” value is “soluble”.
